# Measured values as given in patent publication US8361965B2, “Recombinant chimeric protein of neutrophil inhibitory factor and hirugen, and pharmaceutical composition thereof” (Lunan Pharmaceutical Group Corporation, priority 2008, dated 2013).
# B1: TNHH: recombinant chimeric protein of neutrophil inhibitory factor and hirugen, Met-NIF-GGGGG-FPRPGSGG-Hirugen (SEQ ID NO: 3), expressed in E. coli (protein)
# chain: MNEHNLRCPQNGTEMPGFNDSIRLQFLAMHNGYRSKLALGHISITEESESDDDDDFGFLPDFAPRASKMRYLEYDCEAEKSAYMSARNCSDSSSPPEGYDENKYIFENSNNISEAALKAMISWAKEAFNLNKTKEGEGVLYRSNHDISNFANLAWDAREKFGCAVVNCPLGEIDDETNHDGETYATTIHVVCHYPKINKTEGQPIYKVGTPCDDCSEYTKKADNTTSADPVCIPDDGVCFIGSKADYDSKEFYRFRELGGGGGFPRPGSGGNGDFEEIPEEYL
# modifications: N-terminal Met
# How the values were obtained:
# [1] = tested on: experimental cerebral hematoma in rats; test: effects on experimental cerebral hematoma in rats; type: in vivo, SD rats; design: key to behavioral score: neurologic defect score, full score 11; higher = more severe disorder; settings: 2 mg/kg bid caudal vein; for behavioral score: full score 11
# Procedure: SD rats were randomly divided into 4 groups (8 animals per group), including model group, NHH group, NIF group and TNHH group. The rats in each group were anesthetized by chloral hydrate, and then 0.1 ml blood was collected by amputation of tail. The rats were fixed in a stereotaxic apparatus. Median incision of scalp was performed and the periosteum was cut open to expose bregma. Subsequently, a small hole with a diameter of 1 mm was perforated for needle insertion of microsyringe fixed on the stereotaxic apparatus with insertion depth of 5.8 mm (i.e to the position of caudate nucleus) at the site which was 1 mm rearward to the bregma and 3 mm left to the midline, and then 0.1 ml autoblood was injected slowly. Neurological functional defect score was immediately evaluated based on the evaluation criterion after the animal got conscious. The animal with behavior score less than 11 was selected in this study. Behavior score evaluation was continuously carried out after the establishment of model till the end of the experiment.
# The neurologic function defect score was evaluated at 5 time points of 4 h, 12 h, 24 h, 48 h and 72 h after the model establishment. Changes of brain water content and histopathological observation were performed at 72 h after the model establishment on sacrificed rats.
# Corresponding medicaments (2 mg/kg, bid) were administered through the caudal vein to animals with administration volume of 1 ml/100 g in each group after model animal was successfully established (according to the score less than 11 based on the behavior score evaluation), while the model group received physiological saline in the corresponding volume.
# The brain was taken out immediately after the sacrifice of animals, and then […] ectocinerea (cortex was removed) at the edge of haematoma was collected. The brain water content was determined using dry and wet method based on the following formula: Brain water content=(wet weight−dry weight)/wet weight×100%
# The brain was immediately taken out by decollation at selected time points, and it was sliced up to be 2 mm thick along the coronal section and then fixed in 10% formaldehyde. The slices were stained by regular HE and mounted. Then the pathological changes occurred in pathological region and the neighboring brain tissues were observed.
# Evaluation was performed at the time of 4 h, 12 h, 24 h, 48 h and 72 h after surgery. The method was described as follows:
# The flection of forelimbs was observed by lifting the rat by its tail. If the forelimbs symmetrically extended toward the floor, the score was 0. While if wrist flection, or elbow inflection, or internal rotation of shoulder, or both elbow inflection and internal rotation of shoulder occurred to forelimbs of the rat on the opposite side of the surgery part, it was evaluated as scores of 1, 2, 3 and 4, respectively.
# The animal was placed on flat floor, and then both shoulders were pushed to move towards the opposite side to examine the resistance. If the resistances on both sides were equal and forceful, it was evaluated as 0. While if the resistance decreased slightly, mildly or severely when pushed to the opposite side of the surgery part, it was evaluated as 1, 2 or 3, respectively.
# Both forelimbs of the animal were placed on a metal mesh to observe the muscular tension. The rat with equal and forceful muscular tension of both forelimbs was evaluated as 0. In the same way, the rat was evaluated as 1, 2 or 3, respectively with the reduction of muscular tension on the opposite side of the surgery part mentioned above.
# The animal tended to keep turning around to one side was evaluated as 1. Based on the evaluation criterion (with full score of 11), the higher the score was evaluated, the more severe the behavior disorder was.
# [2] = tested on: platelet aggregation induced by human thrombin; test: antiplatelet aggregation assay (rabbits dosed i.v., thrombin-induced aggregation of PRP); type: in vivo, Japanese Giant Ear White Rabbits; settings: for aggregation ratio, difference: before vs 15 min after
# Procedure: Platelet aggregation rate was determined by puncture of the central artery of the ear before administration, and then rabbits were randomly divided into 5 groups (4 in each group) based on the platelet aggregation rate and body weight: (1) negative control group (5.12 mg mannitol/kg), (2) high dose TNHH group (4.0 mg/kg), (3) middle dose TNHH group (2.0 mg/kg), (4) low dose TNHH group (1.0 mg/kg), and (5) positive control group (0.1 mg recombinant hirudin/kg). The rabbits in each group were administered at the dose respectively via intravenous injection from the marginal ear vein. Blood samples were collected at the time of 15 min after administration (timed by stopwatch) by puncture of the central artery of the ear to determine the platelet aggregation rate. The method of platelet aggregation rate determination was described as follows: the blood samples were collected by puncture of the central artery of the ear using silicified syringe. 3.8% anticoagulant sodium citrate solution (blood: anticoagulant=9:1) was used. The sample was centrifuged at 200×g for 8 min, and the supernatant obtained was platelet-rich plasma (PRP); then the remaining part was centrifuged again at 2200×g for 10 min, and the supernatant obtained was platelet-poor plasma (PPP). The platelet in PRP was counted as approximate 4.0×10^5/mm^3. According to Born's turbidimetry, a turbidimetric tube with 200 μl PRP and a small magnetic bar was placed in a platelet aggregation instrument and incubated at 37 for 1 min. After calibrating with PPP, the platelet was induced to aggregate by adding inductive human thrombin (0.76 IU/ml) under stirring. The effect of medicaments on the aggregation of platelet was analyzed using the aggregation curve and the maximum aggregation rate obtained from the instrument. The maximum aggregation rate was calculated according to the formula below: […]
molecule,measurement,setting,value
B1,behavioral score,[1]; 4 h,2.00 ± 1.07
same,behavioral score,[1]; 12 h,2.00 ± 0.76
same,behavioral score,[1]; 24 h,2.25 ± 0.46
same,behavioral score,[1]; 48 h,2.12 ± 0.64
same,Brain water content (%),"[1]; 72 h, dry and wet method",78.28 ± 1.97 %
same,behavioral score,[1]; 72 h,2.88 ± 1.46
same,"aggregation ratio, Before administration",[2]; TNHH 1.0 mg/kg group,57.19 ± 4.42%
same,"aggregation ratio, 15 min after administration",[2]; TNHH 1.0 mg/kg i.v.,36.27 ± 12.13%
same,"aggregation ratio, difference",[2]; TNHH 1.0 mg/kg i.v.,20.82 ± 7.98 %
same,"aggregation ratio, Before administration",[2]; TNHH 2.0 mg/kg group,59.62 ± 7.22%
same,"aggregation ratio, 15 min after administration",[2]; TNHH 2.0 mg/kg i.v.,19.33 ± 10.25%
same,"aggregation ratio, difference",[2]; TNHH 2.0 mg/kg i.v.,30.30 ± 9.92 %
same,"aggregation ratio, Before administration",[2]; TNHH 4.0 mg/kg group,59.23 ± 6.30%
same,"aggregation ratio, 15 min after administration",[2]; TNHH 4.0 mg/kg i.v.,9.22 ± 4.51%
same,"aggregation ratio, difference",[2]; TNHH 4.0 mg/kg i.v.,50.92 ± 4.33 %
